Data reported in patent US20240190962A1.
Each block holds one substance with its values, some of them ahead of it.

Experiments:
Experiment in all cases: cell-based or functional assay
[1] = target: T1, IFN-γ receptor (IFNGR1, IFNGR2) (UniProt P15260)
T1 sequence (looked up) 1: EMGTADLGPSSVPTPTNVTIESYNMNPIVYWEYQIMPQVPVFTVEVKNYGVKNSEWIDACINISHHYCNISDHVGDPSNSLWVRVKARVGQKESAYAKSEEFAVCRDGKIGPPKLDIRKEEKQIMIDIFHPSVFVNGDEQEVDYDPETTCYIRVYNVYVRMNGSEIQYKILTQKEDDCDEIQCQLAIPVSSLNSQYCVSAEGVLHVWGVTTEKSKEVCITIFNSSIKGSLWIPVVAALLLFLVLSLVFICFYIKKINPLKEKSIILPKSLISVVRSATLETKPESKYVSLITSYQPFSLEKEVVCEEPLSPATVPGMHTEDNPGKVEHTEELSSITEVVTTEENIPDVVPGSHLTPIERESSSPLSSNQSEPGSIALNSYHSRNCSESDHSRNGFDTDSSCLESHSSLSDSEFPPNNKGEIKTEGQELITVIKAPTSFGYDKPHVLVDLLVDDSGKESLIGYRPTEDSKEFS
T1 sequence (looked up) 2: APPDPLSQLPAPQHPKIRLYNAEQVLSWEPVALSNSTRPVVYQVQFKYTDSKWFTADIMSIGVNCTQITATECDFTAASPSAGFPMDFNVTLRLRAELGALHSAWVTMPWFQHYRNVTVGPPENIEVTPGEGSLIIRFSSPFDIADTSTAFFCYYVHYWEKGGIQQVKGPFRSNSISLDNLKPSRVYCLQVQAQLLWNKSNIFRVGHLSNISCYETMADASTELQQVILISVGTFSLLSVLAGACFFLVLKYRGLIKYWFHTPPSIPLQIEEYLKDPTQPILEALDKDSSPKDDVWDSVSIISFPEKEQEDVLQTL

[2] = target: human IL-10 receptor (hIL-10Rα, hIL-10Rβ) (human) (UniProt Q13651)
Chain of human IL-10 receptor (hIL-10Rα, hIL-10Rβ) (human) (Q13651 22-578, chain 1 of 2): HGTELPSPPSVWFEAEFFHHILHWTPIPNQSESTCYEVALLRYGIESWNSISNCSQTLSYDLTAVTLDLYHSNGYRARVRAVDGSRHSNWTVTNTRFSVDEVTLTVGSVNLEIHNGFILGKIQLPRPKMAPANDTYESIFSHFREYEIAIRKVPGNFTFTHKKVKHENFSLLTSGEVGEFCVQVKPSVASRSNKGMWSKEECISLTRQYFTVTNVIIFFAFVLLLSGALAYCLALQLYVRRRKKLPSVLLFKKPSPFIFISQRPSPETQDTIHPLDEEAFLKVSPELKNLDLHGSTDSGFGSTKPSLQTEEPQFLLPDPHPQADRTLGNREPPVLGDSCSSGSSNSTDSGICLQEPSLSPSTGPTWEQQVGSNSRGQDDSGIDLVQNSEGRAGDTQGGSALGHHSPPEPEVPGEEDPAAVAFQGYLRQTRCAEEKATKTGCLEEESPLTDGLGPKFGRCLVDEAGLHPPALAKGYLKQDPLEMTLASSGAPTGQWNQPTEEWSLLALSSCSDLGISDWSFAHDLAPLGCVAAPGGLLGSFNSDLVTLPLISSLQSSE
Chain of human IL-10 receptor (hIL-10Rα, hIL-10Rβ) (human) (Q08334 20-325, chain 2 of 2, further chain): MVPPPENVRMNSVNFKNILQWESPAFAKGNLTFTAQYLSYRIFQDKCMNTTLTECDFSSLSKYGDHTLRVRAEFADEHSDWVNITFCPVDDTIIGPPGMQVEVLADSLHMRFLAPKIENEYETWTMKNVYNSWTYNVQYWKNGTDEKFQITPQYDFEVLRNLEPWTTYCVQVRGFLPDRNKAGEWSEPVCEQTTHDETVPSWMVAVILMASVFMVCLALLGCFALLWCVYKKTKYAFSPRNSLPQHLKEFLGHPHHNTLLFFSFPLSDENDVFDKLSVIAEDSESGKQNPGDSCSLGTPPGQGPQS

[3] = target: human IL-12 receptor complex (IL-12Rβ1, IL-12Rβ2) (human) (UniProt P42701)
Chain of human IL-12 receptor complex (IL-12Rβ1, IL-12Rβ2) (human) (Q99665 24-862, chain 2 of 2, other chains not shown): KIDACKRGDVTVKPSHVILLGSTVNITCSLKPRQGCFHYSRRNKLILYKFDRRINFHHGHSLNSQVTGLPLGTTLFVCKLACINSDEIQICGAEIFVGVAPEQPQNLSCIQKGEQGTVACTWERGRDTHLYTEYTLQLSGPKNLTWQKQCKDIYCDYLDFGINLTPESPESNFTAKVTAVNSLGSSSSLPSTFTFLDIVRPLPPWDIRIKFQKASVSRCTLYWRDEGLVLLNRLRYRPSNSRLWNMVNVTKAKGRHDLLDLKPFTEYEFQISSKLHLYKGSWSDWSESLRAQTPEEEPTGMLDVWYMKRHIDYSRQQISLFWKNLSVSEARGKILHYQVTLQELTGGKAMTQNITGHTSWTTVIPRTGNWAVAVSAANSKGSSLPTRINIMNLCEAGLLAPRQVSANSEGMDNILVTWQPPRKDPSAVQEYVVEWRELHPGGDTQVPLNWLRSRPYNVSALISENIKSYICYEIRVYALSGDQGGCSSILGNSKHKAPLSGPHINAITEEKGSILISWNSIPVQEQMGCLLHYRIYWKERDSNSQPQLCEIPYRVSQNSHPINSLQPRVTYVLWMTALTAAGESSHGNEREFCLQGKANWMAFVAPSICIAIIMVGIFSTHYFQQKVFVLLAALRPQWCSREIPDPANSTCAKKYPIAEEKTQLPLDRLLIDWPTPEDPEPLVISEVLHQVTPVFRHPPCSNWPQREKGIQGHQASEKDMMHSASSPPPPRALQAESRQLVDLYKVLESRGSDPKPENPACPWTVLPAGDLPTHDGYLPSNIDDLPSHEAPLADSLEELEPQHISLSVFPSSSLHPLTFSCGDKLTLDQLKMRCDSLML

[4] = target: IL-23 receptor complex (IL-12Rβ1, IL-23R) (UniProt P42701)
Chain of IL-23 receptor complex (IL-12Rβ1, IL-23R) (Q5VWK5 24-629 limits assumed, chain 2 of 2, other chains not shown): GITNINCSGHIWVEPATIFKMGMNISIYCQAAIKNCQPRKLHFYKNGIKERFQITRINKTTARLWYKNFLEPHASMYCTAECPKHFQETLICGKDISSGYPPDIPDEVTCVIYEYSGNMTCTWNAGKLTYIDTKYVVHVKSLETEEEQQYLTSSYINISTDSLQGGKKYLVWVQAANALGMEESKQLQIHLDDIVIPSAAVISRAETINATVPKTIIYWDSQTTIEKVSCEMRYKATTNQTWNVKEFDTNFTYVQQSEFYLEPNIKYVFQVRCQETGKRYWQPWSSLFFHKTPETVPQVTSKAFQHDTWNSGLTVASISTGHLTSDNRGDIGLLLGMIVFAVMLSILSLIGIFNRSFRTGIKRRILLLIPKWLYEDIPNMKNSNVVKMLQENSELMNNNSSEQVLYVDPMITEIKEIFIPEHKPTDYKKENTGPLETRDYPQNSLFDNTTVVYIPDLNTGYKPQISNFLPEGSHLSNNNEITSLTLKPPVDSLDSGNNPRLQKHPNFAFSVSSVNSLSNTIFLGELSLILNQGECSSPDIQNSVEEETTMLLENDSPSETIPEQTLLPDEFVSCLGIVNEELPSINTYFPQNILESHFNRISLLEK

Chain of recombinant human IL-12 (free state) (P29460 23-328 limits assumed): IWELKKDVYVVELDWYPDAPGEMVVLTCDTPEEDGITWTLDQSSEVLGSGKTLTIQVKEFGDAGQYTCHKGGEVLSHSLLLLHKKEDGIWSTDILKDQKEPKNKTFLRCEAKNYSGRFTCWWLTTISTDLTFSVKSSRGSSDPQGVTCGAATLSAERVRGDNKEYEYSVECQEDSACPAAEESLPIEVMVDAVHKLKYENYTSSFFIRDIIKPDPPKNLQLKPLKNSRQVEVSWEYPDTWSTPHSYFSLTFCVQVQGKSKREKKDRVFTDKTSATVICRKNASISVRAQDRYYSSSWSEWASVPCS
Chain of recombinant human IL-12 (free state) (P29459 23-219 limits assumed): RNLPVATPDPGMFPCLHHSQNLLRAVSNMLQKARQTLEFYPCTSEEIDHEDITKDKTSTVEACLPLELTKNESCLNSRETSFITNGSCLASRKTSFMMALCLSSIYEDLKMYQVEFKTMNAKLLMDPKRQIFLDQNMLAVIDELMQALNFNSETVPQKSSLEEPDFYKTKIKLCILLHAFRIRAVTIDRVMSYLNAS
Chain of recombinant human IL-23 (free state) (P29460 23-328 limits assumed): as the sequence (P29460 23-328 limits assumed) above
Chain of recombinant human IL-23 (free state) (Q9NPF7 20-189 limits assumed): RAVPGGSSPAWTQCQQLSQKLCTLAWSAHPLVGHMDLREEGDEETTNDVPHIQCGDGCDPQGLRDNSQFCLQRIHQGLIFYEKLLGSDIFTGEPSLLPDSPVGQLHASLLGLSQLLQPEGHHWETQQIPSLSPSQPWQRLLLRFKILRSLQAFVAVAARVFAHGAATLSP
Chain of recombinant human IFN-γ (free state) (P01579 24-166 limits assumed): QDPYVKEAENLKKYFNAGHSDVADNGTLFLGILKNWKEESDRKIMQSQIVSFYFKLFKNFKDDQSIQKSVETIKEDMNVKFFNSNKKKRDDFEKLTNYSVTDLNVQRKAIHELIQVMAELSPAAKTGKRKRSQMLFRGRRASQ

- IFN-γ biological activity, HEK-IFN-γ cells [1]: 100%
- IFN-γ biological activity, HEK-PD-1-IFN-γ cells [1]: 100%
- PD-L1 expression (anti-PD-L1 APC, FACS), HEK-CD4-IFN-γ cells [1]: 67 MFI
- PD-L1 expression (anti-PD-L1 APC, FACS), HEK-IFN-γ cells [1]: 75 MFI
Substance: recombinant human IFN-γ (free state) (from UniProt P01579 24-166) (ligand)

- IL-10 biological activity, HEK-IL-10 cells [2]: 100%
- IL-10 biological activity, HEK-PD-1-IL-10 cells [2]: 100%
Substance: recombinant human IL-10 (free state) (from UniProt P22301 19-178) (ligand)

- IL-12 biological activity (IFN-γ release), CD4+ T cells [3]: 100%
- IL-12 biological activity (IFN-γ release), CD8+ T cells [3]: 100%
- IL-12 biological activity, HEK-IL-12 [3]: 100%
- IL-12 biological activity, HEK-IL-12-PD-1 [3]: 100%
- IL-12 biological activity, HEK-IL-12-PD-1 (high) [3]: 100%
- IL-12 biological activity, HEK-IL-12-PD-1 (low) [3]: 100%
- IL-12 biological activity, HEK-IL-12 cells [3]: 100%
- IL-12 biological activity, HEK-PD-1-IL-12 [3]: 100%
- IL-12 biological activity, HEK-PD-1-IL-12 cells [3]: 100%
- PBMC (IFN-γ ng/ml) [3]: 2300 ng/mL
Substance: recombinant human IL-12 (free state) (from UniProt P29460 23-328; P29459 23-219) (ligand)

- IL-23 biological activity (IFN-γ release), CD4+ T cells [4]: 100%
- IL-23 biological activity (IFN-γ release), CD8+ T cells [4]: 100%
- IL-23 biological activity, HEK-IL-23 cells [4]: 100%
- IL-23 biological activity, HEK-PD-1-IL-23 cells [4]: 100%
Substance: recombinant human IL-23 (free state) (from UniProt P29460 23-328; Q9NPF7 20-189) (ligand)
